Results on 4 molecules are retold here after patent US20150376269A1 (Regeneron, published 2015).

Broadly, the Kd is the concentration at which binding is half-saturated. As a reminder, the kon is a measure of how fast the partners come together.

Test [1] addresses T1, serum resistance-associated protein (SRA) from Trypanosoma brucei rhodesiense, recombinant SRA (SEQ ID NO: … (Trypanosoma brucei rhodesiense, UniProt O96637 31-274)).
T1 construct: also called SRA protein
T1 sequence: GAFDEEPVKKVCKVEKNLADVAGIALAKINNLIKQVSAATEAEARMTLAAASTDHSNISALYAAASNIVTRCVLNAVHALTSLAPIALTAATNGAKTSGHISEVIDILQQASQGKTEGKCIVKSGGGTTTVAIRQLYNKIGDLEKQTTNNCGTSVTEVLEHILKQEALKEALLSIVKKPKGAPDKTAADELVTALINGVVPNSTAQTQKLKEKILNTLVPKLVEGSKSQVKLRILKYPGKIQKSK
Kind of test: SPR, mAb captured, 25C, pH 7.4.
Procedure: (§1) Equilibrium dissociation constants (KD) values for SRA binding to selected purified anti-SRA monoclonal antibodies were determined using a real-time surface plasmon resonance biosensor assay on a Biacore T200 instrument. […] SRA binding to the captured monoclonal antibodies was monitored for 4 min while the dissociation of mAb bound SRA was monitored for 7 min. Two different assays formats were adopted to characterize kinetics of SRA binding—(i) regular kinetics and (ii) pH4.5 chase. Regular kinetics experiments were performed using pH7.4 buffer as the running buffer and both the association and dissociation was performed in pH7.4. For the chase format, association and dissociation were performed in pH7.4 buffer and pH4.5 buffer respectively.
(§2) Kinetic association (kₐ) and dissociation (kd) rate constants were determined by processing and fitting the data to a 1:1 binding model using Scrubber 2.0c curve fitting software. Only the dissociation rate (kd) was calculated for the pH4.5 chase experiment. Binding dissociation equilibrium constants (KD) and dissociative half-lives (t½) were calculated from the kinetic rate constants as:

Test [2] concerns the target T1, serum resistance-associated protein …. Kind of test: SPR, 25C, t1/2 pH 7.4 over pH 4.5. A general note: In SPR one partner is held on a chip, and binding of the other changes the refractive index at the surface.
Procedure: as §1, §2
Test [3] has the same target. Put plainly: SPR, mAb captured, 50 nM SRA, pH 4.5, 25C.
Test [4] has the same target. Kind of test: SPR, mAb captured, 25C, assoc. pH 7.4, dissoc. pH 4.5.
Procedure: as §1, §2
Test [5] has the same target. Put plainly: SPR, mAb captured, pH 4.5, 25C; competitor biotin-apoL1 peptide.
Test [6] shares this target. Put plainly: SPR, mAb captured, pH 4.5, 25C; competitor biotin-mutant apoL1 peptide.
Test [7] has as its target T2, SRA.mmh.
T2 construct: also called SRA.mmh (CHO)
T2 antigen: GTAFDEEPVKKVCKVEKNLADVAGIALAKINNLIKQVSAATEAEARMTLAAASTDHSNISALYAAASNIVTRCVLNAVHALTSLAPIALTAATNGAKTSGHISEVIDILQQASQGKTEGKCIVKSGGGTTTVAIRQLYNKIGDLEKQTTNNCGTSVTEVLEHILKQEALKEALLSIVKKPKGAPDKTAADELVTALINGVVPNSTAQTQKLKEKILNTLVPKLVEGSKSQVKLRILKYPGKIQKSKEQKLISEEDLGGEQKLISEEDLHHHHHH
Kind of test: Octet, SRA.mmh captured on anti-Penta-His tips, mAb-1 at 50 ug/mL for 5 min, 25 C, pH 7.4.

For test [8], the target named is T2, SRA.mmh. Put plainly: Octet, mAb-2 at 50 ug/mL on captured SRA.mmh after negative control α-PRLR H1H6800P as mAb-1 (row 32 (-)). On the technique in general: BLI is a label-free optical method that tracks binding on a fibre tip over time.

B1: H1H10067P (antibody, V domains shown)
VH: QVQLQESGPGLVKPSQTLSLTCIVSGGSISSGDYYWNWIRQHPGKGLEWIGDIYHSGDTYYNPSLKSRVTISLDTSKNQFSLKLSSLTAADTAVYYCARDRIVATGGGMDVWGQGTTVTVSS
VL: DIQMTQSPSTLSASVGDRVTITCRASQSISSWLAWYQRKPGKAPNLLIYRSSSLESGVPSRFSGSGSGTEFTLTISSLQADDFVIYYCQQYNSYPYTFGQGTKLEIK
notes: Fully human antibody with human IgG1 Fc (prefix H1H)
For the molecule B1, in test [1], the Kd is no more than 0.0557 nM, the kon turned out to be 897000 M⁻¹ s⁻¹ and the “t ½” value was no less than 3.85 h. Besides, the “t ½ ratio pH 7.4/pH 4.5” value in test [2] is no less than 4. The “50 nM SRA binding (RU)” value in test [3] was determined as 85 RU. The “t ½” value in test [4] is 0.933 h. Besides, in test [5], the “50 nM SRA + 5 uM apoL1 peptide binding (RU)” value turned out to be 98 RU and the “% Blocking, apoL1 peptide” value is -16%. Also, in test [6], the “50 nM SRA + 5 uM mutant apoL1 peptide binding (RU)” value was determined as 82 RU and the “% Blocking, Mutant apoL1 peptide” value is 4%. Moreover, the “50 ug/mL mAb 1 Bound (nm)” value in test [7] is 1.52 nm. For the same molecule, the “Binding of mAb-2 to SRA Pre-complexed with mAb-1” value (“Binding … with mAb-1” below) in test [8] was determined as 1.41.

B2: H1H10027P (antibody, V domains shown)
VH: EVQLVESGGALVQPGRSLTLSCAASGFTFDDYTMHWVRQTPGKGLEWVSGILWNSDNLVYADSVKGRFTISRDNAKNSLYLQMNSLRVEDTALYYCTKEIDYLTLGGNAFDVWGQGTMVTVSS
VL: DIQMTQSPSTLSASVGDRITITCRASQNINYWLAWYQQKPGKAPKLLIYKASSLAGGVPSRFSGSGSGTDFTLTINSLQPDDFATYYCQKYNTYSLNFGGGTKVEIK
notes: as for B1
Turning to B2, in test [1], the Kd was no more than 0.0376 nM, the kon is 1.33e+06 M⁻¹ s⁻¹ and the “t ½” value was no less than 3.85 h. Moreover, in test [2], the “t ½ ratio pH 7.4/pH 4.5” value was no less than 3. Further, the “50 nM SRA binding (RU)” value in test [3] turned out to be 95 RU. In addition, in test [4], the “t ½” value was found to be 1.4 h. Also, in test [5], the “50 nM SRA + 5 uM apoL1 peptide binding (RU)” value was 118 RU and the “% Blocking, apoL1 peptide” value is -24%. In test [6], the “50 nM SRA + 5 uM mutant apoL1 peptide binding (RU)” value is 92 RU and the “% Blocking, Mutant apoL1 peptide” value stood at 4%. Further, the “50 ug/mL mAb 1 Bound (nm)” value in test [7] stood at 1.5 nm. The “Binding … with mAb-1” value in test [8] was found to be 1.55.

B3: H2aM10204N (antibody, V domains shown)
VH: QVHLVQSGAEVKKPGSSVKVSCKASGGTFSNYAISWVRQAPGQGLEWMGGIIPFSGSATYAQNFQGRITITTDESTRTAYMELNGLRSEDTAVYYCARWFSGYGGDFDYWGQGTLVTVSS
VL: AIQMTQSPSSLSASVGDRVTITCRASQDIKNDLGWYQQKPGKAPKLLIYAASTLQSGVPSRFSGSGSGTHFTLTLSSLQPEDFATYFCLQDYTFPRTFGQGTKVEIK
notes: Chimeric antibody, human variable domains and mouse constant domains (mouse Fc, prefix H2aM); also called H2M10204N
As for B3, in test [1], the Kd is no more than 0.0899 nM, the kon turned out to be 556000 M⁻¹ s⁻¹ and the “t ½” value was no less than 3.85 h. The “t ½ ratio pH 7.4/pH 4.5” value in test [2] is no less than 95. For the same molecule, the “50 nM SRA binding (RU)” value in test [3] was found to be 140 RU. Further, the “t ½” value in test [4] came out at 0.0333 h. Besides, in test [5], the “50 nM SRA + 5 uM apoL1 peptide binding (RU)” value came to 3 RU and the “% Blocking, apoL1 peptide” value was 98%. Also, in test [6], the “50 nM SRA + 5 uM mutant apoL1 peptide binding (RU)” value is 128 RU and the “% Blocking, Mutant apoL1 peptide” value is 9%. Also, in test [7], the “50 ug/mL mAb 1 Bound (nm)” value stood at 1.46 nm. The “Binding … with mAb-1” value in test [8] amounted to 1.08.

B4: H1H10069P (antibody, V domains shown)
VH: QVQLQESGPGLVKPSETLSLTCSVSGGSFTNYYWSWIRQPPGKGLEWIGSVFYSGTTNYNPSLQSRVTLSIETSKNQFSLRLNSVTAADTAVYYCARDQGAAALDYWGQGTLVTVSS
VL: DIQMTQSPSTLSASVGDRLTITCRASQSINNWLAWYQQKPGKAPKLLIYKASNLESGVPSRFSGSGSGTEFTLTISNLQPDDFATYYCQQYNSFFLTFGGGTKVEIK
notes: as for B1
On to B4, for which, in test [1], the Kd was no more than 0.0785 nM, the kon is 636000 M⁻¹ s⁻¹ and the “t ½” value is no less than 3.85 h. In test [2], the “t ½ ratio pH 7.4/pH 4.5” value was no less than 2. Moreover, in test [3], the “50 nM SRA binding (RU)” value stood at 54 RU. In addition, the “t ½” value in test [4] stood at 1.87 h. In addition, in test [5], the “50 nM SRA + 5 uM apoL1 peptide binding (RU)” value is 62 RU and the “% Blocking, apoL1 peptide” value is -13%. Besides, in test [6], the “50 nM SRA + 5 uM mutant apoL1 peptide binding (RU)” value came to 52 RU and the “% Blocking, Mutant apoL1 peptide” value was determined as 5%. In addition, the “50 ug/mL mAb 1 Bound (nm)” value in test [7] worked out at 1.61 nm. In addition, the “Binding … with mAb-1” value in test [8] was 1.37.
